Experimental data as given in PMC5618690, “Structural and functional analysis of two small leucine-rich repeat proteoglycans, fibromodulin and chondroadherin” (Matrix Biology, 2017).
Entries after “also recorded” stand apart in the source; their conditions may differ.

Key:
[1] = not SEC-MALS of this work; ref [26], [32], [33]; cited from earlier work
Excerpt: Fig. 3 Concave face interactions in SLRP crystal structures. For each structure, two orthogonal views are shown. […] The experimentally determined mass of fibromodulin was 56.7 kDa (calculated: 41.5 kDa + 4 N-linked glycans) and that of chondroadherin was 39.6 kDa (calculated: 38.6 kDa). In comparison, using the same SEC-MALS setup, we previously determined an experimental mass of 83.5 kDa for the glycosylated decorin core protein (calculated: 36.2 kDa + 4 N-linked glycans).

[2] = Affinity of untagged protein for Ni^2 + resin
Protocol: For purification of His-tagged fibromodulin, the filtered serum-free cell culture supernatant was adjusted to a final concentration of 20 mM Na-HEPES (pH 7.5) and loaded onto a 5-ml HisTrap Excel column (GE Healthcare) using an Äkta Purifier (GE Healthcare). The column was washed with buffer A (20 mM HEPES pH 7.5, 150 mM NaCl, 2 mM CaCl2) and the protein was eluted with 500 mM imidazole in buffer A. To remove the His-tag, fractions containing protein were incubated overnight with recombinant His-tagged TEV protease (made in E. coli using an expression vector kindly provided by Stephen Curry) while dialysing against buffer A. The reaction mixture was passed over a 5-ml HisTrap Excel column, and the flow-through containing the untagged fibromodulin protein was collected. After concentration using a Vivaspin centrifugal device (Sartorius), the fibromodulin protein was further purified by size exclusion chromatography on a Superdex 75 10/300 GL column (GE Healthcare) using buffer A as the running buffer. The purified protein ran as a single broad band of ~ 55 kDa on reducing SDS-PAGE (calculated: 41.5 kDa + 4 N-linked glycans).
The natural affinity of chondroadherin for Ni^2 + affinity resin was used to purify the untagged protein. […]

[3] = tested on: Collagen Toolkits II and III; settings: Toolkit peptides from collagens II and III; ref [9]; cited from earlier work
Excerpt: (§1) Chondroadherin knockout mice present with ...

[4] = SEC-MALS, oligomeric state in solution; type: physicochemical; settings: for oligomeric state in solution / experimentally determined mass: SEC-MALS; for oligomeric state in solution: 10 mg/ml injected, pH 7.5, peak protein concentration estimated at least 50 μM; for experimentally determined mass: Superdex 75, 10 mg/ml injected, 150 mM NaCl, 20 mM HEPES (pH 7.5), 0.1 ml/min; for dissociation constant of dimer (if any): inferred from SEC-MALS, compared with decorin dimer 1.4 μM
Protocol: Fibromodulin and chondroadherin samples at a concentration of 10 mg/ml were injected onto a Superdex 75 10/30 column (GE Healthcare) connected to a 1260 Infinity HPLC (Agilent Technologies). The running buffer was 150 mM NaCl, 20 mM HEPES (pH 7.5) and the flow rate was 0.1 ml/min. Light scattering and refractive index changes were monitored using in-line Wyatt Mini Dawn and Optilab T-rEX detectors (Wyatt Technology Corp). The data were analysed with the Wyatt ASTRA V software. Each N-linked glycosylation site was assumed to add 2 kDa of molecular mass. The extinction coefficients for fibromodulin and chondroadherin were calculated as 32,930 and 40,715 M^− 1 cm^− 1, respectively.

Lysyl oxidase = settings: very N-terminus of fibromodulin; ref [9]; cited from earlier work
Excerpt: Previous studies with bacterially expressed fibromodulin fragments identified LRRs 5-7 and 11 (VI-VIII and XII in the numbering scheme used here) as important for collagen binding, [25]. Thus, the collagen binding site appears to be located in the C-terminal half of fibromodulin, potentially leaving the N-terminal half containing most of the surface-exposed aromatic residues free to interact with another partner.

[5] = C-terminal 14 residues; ref [15]; cited from earlier work
Excerpt: The collagen-binding site on chondroadherin has not been mapped. […] These positions map to the α-helix in the C-terminal cap of chondroadherin. Glu316, the last residue of the α-helix, appears to be critical for integrin binding and may interact with the metal ion-dependent adhesion site of the integrin α2 I domain [45], [46].

collagen III = assay: Chondroadherin binding to collagen III; settings: Collagen Toolkit III solid-phase assay
Protocol: (§2) Recombinant purified chondroadherin was biotinylated using biotin EZ-link reagent (ThermoFisher) and dialysed into TBS to remove excess biotinylation reagent. Collagen peptides from Toolkit II and III [57], [58] were coated on a 96-well plate at 10 μg/ml in 20 mM acetic acid overnight at 4 °C. […] The following incubations were conducted at room temperature. Plates were rinsed three times with TBS and blocked for 1 h with 5% BSA in TBS. After rinsing with TBS, plates were incubated with biotinylated chondroadherin at 10 μg/ml in TBST (TBS with 0.1% Tween-20) with 0.1% BSA for 1 h. Plates were washed three times with TBST, and incubated with streptavidin-HRP (Millipore) diluted 1:20,000 in TBST with 0.1% BSA for 1 h. Plates were washed five times with TBST, and the binding was detected with TMB substrate (ThermoFisher) and stopped with 2 M sulphuric acid. The absorbance was read at 450 nm.

collagen I = settings: ref [11]; cited from earlier work
Excerpt: as §1

integrin α2β1 = settings: cited from earlier work
Excerpt: One of the more distant homologues of fibromodulin is chondroadherin, a class IV SLRP found in cartilage and bone. Chondroadherin-deficient mice have thinner cortical bones and longer growth plate proliferation zones, as well as mechanically softer knee surface cartilage. […] These positions map to the α-helix in the C-terminal cap of chondroadherin. Glu316, the last residue of the α-helix, appears to be critical for integrin binding and may interact with the metal ion-dependent adhesion site of the integrin α2 I domain [45], [46].

collagen II [6] = settings: ref [13]; cited from earlier work
Excerpt: One of the more distant homologues of fibromodulin is chondroadherin, a class IV SLRP found in cartilage and bone. Chondroadherin-deficient mice have thinner cortical bones and longer growth plate proliferation zones, as well as mechanically softer knee surface cartilage.

collagen II [7] = assay: Chondroadherin binding to collagen II mapped with Toolkit II; settings: mapped with Toolkit II solid-phase assay; six of the nine triplets in II-26
Protocol: as §2

| binding to collagen III (collagen III) | Molecule | oligomeric state in solution (literature) [1] | affinity for Ni^2 + resin [2] | binding to Toolkit peptides [3] | oligomeric state in solution [4] | experimentally determined mass [4] [kDa] | dissociation constant of dimer (if any) [4] | binding to lysyl oxidase (Lysyl oxidase) | heparan sulphate binding [5] | binding to collagen I (collagen I) | integrin α2β1 binding (integrin α2β1; binding site in chondroadherin, ref [44]) | interaction with integrin α2β1 (cell-matrix interactions) (integrin α2β1; ref [14]) | interaction with collagen II (collagen II [6]) | binding to collagen II (collagen II [7]) |
| --- | --- | --- | --- | --- | --- | --- | --- | --- | --- | --- | --- | --- | --- | --- |
| – | biglycan: class I SLRP core protein (protein, UniProt P21810 38-368, looked up) Biglycan: DEEASGADTSGVLDPDSVTPTYSAMCPFGCHCHLRVVQCSDLGLKSVPKEISPDTTLLDLQNNDISELRKDDFKGLQHLYALVLVNNKISKIHEKAFSPLRKLQKLYISKNHLVEIPPNLPSSLVELRIHDNRIRKVPKGVFSGLRNMNCIEMGGNPLENSGFEPGAFDGLKLNYLRISEAKLTGIPKDLPETLNELHLDHNKIQAIELEDLLRYSKLYRLGLGHNQIRMIENGSLSFLPTLRELHLDNNKLARVPSGLPDLKLLQVVYLHSNNITKVGVNDFCPMGFGVKRAYYNGISLFNNPVPYWEVQPATFRCVTDRLAIQFGNYKK | form stable dimers in solution | – | – | – | – | – | – | – | – | – | – | – | – |
| – | fibromodulin: human fibromodulin residues 19–376 of UniProt Q06828, ten N-terminal tyrosines mutated to serine, natively glycosylated (protein, N-linked glycans at Asn127, Asn166, Asn201, Asn291; left off: His-tag, N-terminal, cleaved, human fibromodulin residues 19–376 of UniProt Q06828, ten N-terminal tyrosines mutated to serine, natively glycosylated) GALAQYEDDPHWWFHYLRSQQSTSSDPSDPSPSETSEPSPSGVDEGPASTSGSPSPPDPRDCPQECDCPPNFPTAMYCDNRNLKYLPFVPSRMKYVYFQNNQITSIQEGVFDNATGLLWIALHGNQITSDKVGRKVFSKLRHLERLYLDHNNLTRMPGPLPRSLRELHLDHNQISRVPNNALEGLENLTALYLQHNEIQEVGSSMRGLRSLILLDLSYNHLRKVPDGLPSALEQLYMEHNNVYTVPDSYFRGAPKLLYVRLSHNSLTNNGLASNTFNSSSLLELDLSYNQLQKIPPVNTNLENLYLQGNRINEFSISSFCTVVDVVNFSKLQVLRLDGNEIKRSAMPADAPLCLRLASLIEI | – | substantial affinity for Ni^2 + resin | bound several Toolkit peptides from both collagens II and III; also recorded: binds to KGHR-containing sites in Collagen Toolkits II and III | predominantly monomeric in solution; also recorded: neither fibromodulin nor chondroadherin forms a stable dimer in solution | 56.7 | substantially higher than that of the decorin dimer | Lysyl oxidase has been shown to bind to the very N-terminus of fibromodulin | – | – | – | – | – | – |
| not at all to collagen III | chondroadherin: human chondroadherin, residues 23–359 of Uniprot O15335, untagged; vector-derived APLA sequence at the N-terminus (protein) APLACPQNCHCHSDLQHVICDKVGLQKIPKVSEKTKLLNLQRNNFPVLAANSFRAMPNLVSLHLQHCQIREVAAGAFRGLKQLIYLYLSHNDIRVLRAGAFDDLTELTYLYLDHNKVTELPRGLLSPLVNLFILQLNNNKIRELRAGAFQGAKDLRWLYLSENALSSLQPGALDDVENLAKFHVDRNQLSSYPSAALSKLRVVEELKLSHNPLKSIPDNAFQSFGRYLETLWLDNTNLEKFSDGAFLGVTTLKHVHLENNRLNQLPSNFPFDSLETLALTNNPWKCTCQLRGLRRWLEAKASRPDATCASPAKFKGQHIRDTDAFRSCKFPTKRSKKAGRH | – | substantial affinity for Ni^2 + resin | – | predominantly monomeric in solution; also recorded: neither fibromodulin nor chondroadherin forms a stable dimer in solution; also recorded: at best, very weak | 39.6 | substantially higher than that of the decorin dimer | – | bind heparan sulphate | reported binding of chondroadherin to collagen I | residues 307–318 have been identified as a binding site for integrin α2β1 | mediates cell-matrix interactions through binding to integrin α2β1 | interacts with collagen II | binds to a unique sequence motif in collagen II |
